Assay results as given in patent US8461322B2, “Plant 1-deoxy-D-xylulose 5-phosphate reductoisomerase” (E I du Pont de Nemours and Company, priority 1998, dated 2013).

Assay: Recombinant DXR activity, non-radioactive kinetic assay (oxidation of NADPH monitored at 340 nm)
Format: biochemical
Conditions: Ni-Agarose purified His-tagged protein expressed in E. coli, 100 mM Hepes pH 7.5, 1 mM MnCl2, NADPH, 0.3 mM DXP, room temperature
Procedure: Recombinant His-tagged DXR proteins were purified from E. coli using Ni-Agarose. Recombinant DXR activity was measured using a non-radioactive kinetic assay (Kuzuyama et al. (1998) Tetrahedron Lett 39:7913-7916). The assay mixture contained the following: 100 mM Hepes (pH 7.5); 1 mM MnCl2; […] NADPH, DXR, and 0.3 mM 1-deoxy-D-xylulose […] (DXP). The final volume of the reaction mixture was 200 μl and the assay was initiated by adding the substrate. The assay was run at room temperature on a plate reader. The oxidation of NADPH was monitored at 340 nm. The DXR activity was determined from the slope of the kinetic curve.

Row | Molecule | DXR activity (oxidation of NADPH)
1 | second truncated rice His-DXR (SEQ ID NO:31): rice DXR protein in which the first seventy-six amino acids have been removed and replaced with a twenty-one amino acid His-tag (protein, His-tag; His-tagged truncated rice 1-deoxy-D-xylulose 5-phosphate reductoisomerase) MGSSHHHHHHSSGLVPRGSHMKPISIVGSTGSIGTQTLDIVAENPDKFRVVALAAGSNVTLLADQVKTFKPKLVAVRNESLVDELKEALADCDWKPEIIPGEQGVIEVARHPDAVTVVTGIVGCAGLKPTVAAIEAGKDIALANKETLIAGGPFVLPLAQKHKVKILPADSEHSAIFQCIQGLPEGALRRIILTASGGAFRDWPVDKLKEVKVADALKHPNWNMGKKITVDSATLFNKGLEVIEAHYLFGAEYDDIEIVIHPQSIIHSMIETQDSSVLAQLGWPDMRIPTLYTMSWPDRIYCSEVTWPRLDLCKLGSLTFKAPDNVKYPSMDLAYAAGRAGGTMTGVLSAANEKAVELFIDEKIGYLDIFKVVELTCDAHRNELVTRPSLEEIIHYDLWAREYAASLQPSTGLSPVPV | no oxidation of NADPH was detected
2 | Synechocystis His-DXR: His-tagged Synechocystis 1-deoxy-D-xylulose 5-phosphate reductoisomerase (protein, His-tag; His-tagged Synechocystis 1-deoxy-D-xylulose 5-phosphate reductoisomerase) MGSSHHHHHHSSGLVPRGSHMVKRISILGSTGSIGTQTLDIVTHHPDAFQVVGLAAGGNVALLAQQVAEFRPEIVAIRQAEKLEDLKAAVAELTDYQPMYVVGEEGVVEVARYGDAESVVTGIVGCAGLLPTMAAIAAGKDIALANKETLIAGAPVVLPLVEKMGVKLLPADSEHSAIFQCLQGVPEGGLRRIILTASGGAFRDLPVERLPFVTVQDALKHPNWSMGQKITIDSATLMNKGLEVIEAHYLFGLDYDHIDIVIHPQSIIHSLIEVQDTSVLAQLGWPDMRLPLLYALSWPERIYTDWEPLDLVKAGSLSFREPDHDKYPCMQLAYGAGRAGGAMPAVLNAANEQAVALFLQEKISFLDIPRLIEKTCDLYVGQNTASPDLETILAADQWARRTVLENSACVATRP | DXR activity was detected
3 | E. coli His-DXR: His-tagged E. coli 1-deoxy-D-xylulose 5-phosphate reductoisomerase (protein, His tag; His-tagged E. coli 1-deoxy-D-xylulose 5-phosphate reductoisomerase) MGSSHHHHHHSSGLVPRGSHMKQLTILGSTGSIGCSTLDVVRHNPEHFRVVALVAGKNVTRMVEQCLEFSPRYAVMDDEASAKLLKTMLQQQGSRTEVLSGQQAACDMAALEDVDQVMAAIVGAAGLLPTLAAIRAGKTILLANKESLVTCGRLFMDAVKQSKAQLLPVDSEHNAIFQSLPQPIQHNLGYADLEQNGVVSILLTGSGGPFRETPLRDLATMTPDQACRHPNWSMGRKISVDSATMMNKGLEYIEARWLFNASASQMEVLIHPQSVIHSMVRYQDGSVLAQLGEPDMRTPIAHTMAWPNRVNSGVKPLDFCKLSALTFAAPDYDRYPCLKLAMEAFEQGQAATTALNAANEITVAAFLAQQIRFTDIAALNLSVLEKMDMREPQCVDDVLSVDASAREVARKEVMRLAS | DXR activity was detected
4 | truncated rice His-DXR (SEQ ID NO:30): rice DXR protein in which the first fifty-one amino acids have been removed and replaced with a twenty amino acid His-tag (protein, His-tag; His-tagged truncated rice 1-deoxy-D-xylulose 5-phosphate reductoisomerase) MGSSHHHHHHSSGLVPRGSHMQQAPPPAWPGRAVVEPGRRSWDGPKPISIVGSTGSIGTQTLDIVAENPDKFRVVALAAGSNVTLLADQVKTFKPKLVAVRNESLVDELKEALADCDWKPEIIPGEQGVIEVARHPDAVTVVTGIVGCAGLKPTVAAIEAGKDIALANKETLIAGGPFVLPLAQKHKVKILPADSEHSAIFQCIQGLPEGALRRIILTASGGAFRDWPVDKLKEVKVADALKHPNWNMGKKITVDSATLFNKGLEVIEAHYLFGAEYDDIEIVIHPQSIIHSMIETQDSSVLAQLGWPDMRIPTLYTMSWPDRIYCSEVTWPRLDLCKLGSLTFKAPDNVKYPSMDLAYAAGRAGGTMTGVLSAANEKAVELFIDEKIGYLDIFKVVELTCDAHRNELVTRPSLEEIIHYDLWAREYAASLQPSTGLSPVPV | no oxidation of NADPH was detected
